According to US20080124340A1:

T1: human erythropoietin receptor (huEpoR), cell surface expressed (human) (UniProt P19235)
T1 sequence (looked up): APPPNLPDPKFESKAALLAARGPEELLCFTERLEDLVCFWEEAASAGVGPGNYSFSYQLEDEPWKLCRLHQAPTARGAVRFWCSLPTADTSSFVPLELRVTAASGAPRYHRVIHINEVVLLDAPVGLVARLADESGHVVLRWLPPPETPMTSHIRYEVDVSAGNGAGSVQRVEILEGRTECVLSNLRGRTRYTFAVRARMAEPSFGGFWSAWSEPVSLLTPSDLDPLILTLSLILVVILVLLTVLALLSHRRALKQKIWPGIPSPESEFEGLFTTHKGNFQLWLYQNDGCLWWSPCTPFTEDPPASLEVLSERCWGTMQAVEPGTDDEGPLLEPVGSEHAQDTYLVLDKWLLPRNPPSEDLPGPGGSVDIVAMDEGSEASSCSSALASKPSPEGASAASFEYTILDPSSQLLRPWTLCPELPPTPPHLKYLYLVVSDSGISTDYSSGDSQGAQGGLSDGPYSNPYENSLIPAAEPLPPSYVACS

T2: soluble human erythropoietin receptor protein (huEpoR) (human) (UniProt P19235)
T2 sequence (looked up): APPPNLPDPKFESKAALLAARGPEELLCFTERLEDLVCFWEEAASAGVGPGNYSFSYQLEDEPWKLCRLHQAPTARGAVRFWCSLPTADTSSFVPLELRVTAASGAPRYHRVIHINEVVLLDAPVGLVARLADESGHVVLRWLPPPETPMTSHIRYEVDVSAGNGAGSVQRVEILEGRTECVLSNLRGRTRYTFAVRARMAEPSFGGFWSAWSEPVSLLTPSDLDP

B1: clone 318 scFv-Fc protein (Fc fusion, part only; not given: scFv linker and IgG1 Fc, not shown: a dimerising Fc or GST)
scFv, part: QVQLVESGGGLVQPGGSLRLSCAVSGFTFSKYWMTWVRQAPGKGLEWVANIKPDGSEKYYVESVKGRFTISRDNAKNSVYLQMNSVRAEDTAVYYCARVSRGGSFSDWGQGTLVTVSSQSVLTQPPSASGSPGQSVTISCTGTSSDVGGYNYVSWYQQHPGRAPKLIIYEVSKRPSGVPDRFSGSKSGNTASLTVSGLQADDEADYYCNSYAGSIYVFGSGTKVTVL
B2: clone 13 scFv-Fc protein (Fc fusion, part only; not given: scFv linker and IgG1 Fc, not shown: a dimerising Fc or GST)
scFv, part: QVQLQQSGGGVVQPGRSLRLSCAASGFTFSDYAMHWVRQAPGKGLEWVAVISNHGKSTYYADSVKGRFTISRDNSKHMLYLQMNSLRADDTALYYCARDIALAGDYWGQGTLVTVSADIQMTQSPSSLSASVGDRVTITCRASQSISSYLNWYQQLPGKVPKLLIYGASKLQSGVPSRFSGSGSGTDFTLTISSLQPEDFATYYCLQDYNYPLTFGPGTRLEIK
B3: clone 15 scFv-Fc protein (Fc fusion, part only; not given: scFv linker and IgG1 Fc, not shown: a dimerising Fc or GST)
scFv, part: QVQLQESGPGLVRPSGTLSLTCAVSGGSIGSSNWWSWVRQAPGKGLEWIGEISQSGSTNYNPSLKGRVTISLDRSRNQLSLKLSSVTAADTAVYYCARQLRSIDAFDIWGPGTTVTVSASYVLTQPPSVSVSPGLTATITCSGDKLGDKYASWYQQKPGQSPVLVIYQDRKRPSGIPERFSGSNSGNTATLTISGTQAVDEADYYCQAWDSDTSYVFGTGTQLTVL
B4: clone 34 scFv-Fc protein (Fc fusion, part only; not given: Linker and IgG1 Fc, not shown: another chain or arm of the molecule; a dimerising Fc or GST; small tags and cut ends)
VH: QVQLQQSGAEVKKPGASVKVSCKASGYTFSGYYMHWVRQAPGQGLEWMGWINPNSGSTNYAQKFLGRVTMTRDTSISTAYMELSSLRSDDTAVYYCARGHSGDYFDYWGQGTLVTVSA
VL: EIVLTQSPSSLSASVGDRVTITCRASQSVSSWLAWYQQRPGQAPKLLIYAARLRGGGPSRFSGSGSGTEFTLTISSLQPEDFATYFCQQSYSTPISFGGGTKLEIK
B5: clone 201 scFv-Fc protein (Fc fusion, part only; not given: scFv linker and IgG1 Fc, not shown: a dimerising Fc or GST)
scFv, part: QVQLQESGSGLARPSQTLSLTCAVSGGSISSSAFSWNWIRQPPGKGLEWIGYIYHTGITDYNPSLKSRVTISVDRSKNQFSLNVNSVTAADTAVYYCARGHGSDPAWFDPWGKGTLVTVSSQSVLTQPPSVSVSPGQTASITCSGDKLGDKYASWYQQRPGQSPVLVIYRDTKRPSGIPERFSGSNSGNTATLTISGTQAVDEADYYCQAWDSTTSLVFGGGTKLTVL
B6: clone 276 scFv-Fc protein (Fc fusion, part only; not given: scFv linker and IgG1 Fc, not shown: a dimerising Fc or GST)
scFv, part: EVQLVQSGGGLVQPGGSLRLSCAASGFTFSSYWMSWVRQAPGKGLEWVANIKPDGSEKYYVDSVKGRFTISRDNAKNSVYLQMNSLRAEDTAVYYCARVSRGGSYSDWGRGTMVTVSSQSVLTQPPSASGSPGQSVTISCTGTSSDVGGFNYVSWYQKYPGKAPKLVIYEVSKRPSGVPDRFSGSKSGNTASLTVSGLQAEDEADYYCSSWAPGKNLFGGGTKLTVL
B7: clone 295 scFv-Fc protein (Fc fusion, part only; not given: scFv linker and IgG1 Fc, not shown: a dimerising Fc or GST)
scFv, part: EVQLVESGGGLVQPGGSLRLSCAASGFTFSSYAMSWVRQAPGKGLEWVSGISGSGSSEGGTYYADSVKGRFTLSRDNSKNTLYLQMNSLRAEDTALYYCVKDRPSRYSFGYYFDYWGRGTLVTVSSLPVLTQPPSVSVSPGQTASIACSGNKLGDKYVSWYQQKPGQSPLLVIYQDTKRPSGIPERFSGSNSGNTATLTISGTQAMDEADYYCQAWDSSTDVVFGGGTKLTVL
B8: clone 307 scFv-Fc protein (Fc fusion, part only; not given: scFv linker and IgG1 Fc, not shown: a dimerising Fc or GST)
scFv, part: EVQLVESGGGLVQPGGSLRLSCAVSGFTFSKYWMTWVRQAPGKGLEWVANIKPDGSEKYYVESVKGRFTISRDNAKNSVYLQMNSVRAEDTAVYYCARVSRGGSFSDWGQGTMVTVSSQSVLTQPPSASGSPGQSVTISCTGTSSDVGGYNYVSWYQQHPDKAPRLMIYDVNKRPSGVPDRFSGSKSGNTASLTVSGLQAEDEAHYYCNSYAGSNNWVFGGGTQLTVL
B9: clone 319 scFv-Fc protein (Fc fusion, part only; not given: Linker and IgG1 Fc, not shown: another chain or arm of the molecule; a dimerising Fc or GST; small tags and cut ends)
VH: QVQLVQSGAEIKKPGASVKVSCKTFGSPFSTNDIHWVRQAPGQGLEWMGIIDTSGAMTRYAQKFQGRVTVTRETSTSTVYMELSSLKSEDTAVYYCAREGCTNGVCYDNGFDIWGQGTLVTVSS
VL: DIQMTQSPSTLSASIGDRVTITCRASEGIYHWLAWYQQKPGKAPKLLIYKASSLASGAPSRFSGSGSGTDFTLTISSLQPDDFATYYCQQYSNYPLTFGGGTKLEIK
B10: clone 323 scFv-Fc protein (Fc fusion, part only; not given: scFv linker and IgG1 Fc, not shown: a dimerising Fc or GST)
scFv, part: QVQLVESGGGLVQPGGSLRLSCAVSGFTFSKYWMTWVRQAPGKGLEWVANIKPDGSEKYYVESVKGRFTISRDNAKNSVYLQMNSVRAEDTAVYYCARVSRGGSFSDWGRGTMVTVSSQSALTQPASVSGSPGQSITISCTGTSSDVGSYNLVSWYQQHPGKVPKLIIYEVSNRPSGVSHRFSGSKSGNTASLTISGLQAEDEADYYCSSLTSSGTWVFGGGTKVTVL
B11: clone 330 scFv-Fc protein (Fc fusion, part only; not given: scFv linker and IgG1 Fc, not shown: a dimerising Fc or GST)
scFv, part: EVQLVESGGGLVQPGGSLRLSCAVSGFTFSKYWMTWVRQAPGKGLEWVANIKPDGSEKYYVESVKGRFTISRDNAKNSVYLQMNSVRAEDTAVYYCARVSRGGSFSDWGQGTLVTVSSQSALTQPPSASGSPGQSVTISCTGTSSDVGAYNYVSWYQQHPGKAPKLMIYEVARRPSGVPDRFSGSKSGNTASLTVSGLQAEDEADYYCSSYAGSNNFAVFGRGTKLTVL
B12: clone 352 scFv-Fc protein (Fc fusion, part only; not given: scFv linker and IgG1 Fc, not shown: a dimerising Fc or GST)
scFv, part: EVQLVQSGGGLVQPGGSLRLSCAASGFRFSSYWMTWVRQAPGKGLEWVANIKPDGSEKYYVDSVKGRFTMSRDNAKNSVYLQMNSLRAEDTAVYYCARVSRGGSFSDWGQGTLVTVSSQSALTQPASVSGSPGQSITIPCTGTSSDIGTYDYVSWYQQHPGKVPKVIIYEVTNRPSGVSNRFSGSKSGNTASLTISGLQADDEADYYCNSFTKNNTWVFGGGTKLTVL
B13: clone 378 scFv-Fc protein (Fc fusion, part only; not given: scFv linker and IgG1 Fc, not shown: a dimerising Fc or GST)
scFv, part: QVQLVESGGGLVQPGRSLILSCAVSGFTFSKYWMTWVRQAPGKGLEWVANIKPDGSEKYYVESVKGRFTISRDNAKNSVYLQMNSVRAEDTAVYYCARVSRGGSFSDWSQGTLVTVSSQSALTQPPSASGSPGQSVTISCTGTSGDVGAYNYVSWYQQYPGKAPKLMIYEVSKRPSGVPDRFSGSKSGNTASLTVSGLQAEDEADYYCNSYRGSNGPWVFGGGTKVTVL
B14: clone 16 scFv-Fc protein (Fc fusion, part only; not given: scFv linker and IgG1 Fc, not shown: a dimerising Fc or GST)
scFv, part: QVQLQESGPGLVKPSETLSLTCTVSGGYINNYYWSWIRQPPGKGLEWIGYIHYSGSTYYNPSLKSRVTISEDTSKNQFSLKLSSATAADTAVYYCARVGYYYDSSGYNLAWYFDLWGRGTLVTVSASSELTQDPAVSVALGQTVRITCQGDNLRSYSATWYQQKPGQAPVLVLFGENNRPSGIPDRFSGSKSGDTAVLTITGTQTQDEADYYCTSRVNSGNHLGVFGPGTQLTVL

biological target: cynomolgus monkey EpoR (cynoEpoR) (cynomolgus monkey); test: SPR, Biacore T100; scFv-Fc captured on CM5 chip, EpoR as analyte; fit to steady-state model (off-rate too rapid); clone #318, cynomolgus EpoR, steady-state fit

Binder	Kd [nM]
B1	4890

biological target: T1, human erythropoietin receptor (huEpoR), cell surface expressed (human); test: cell-based or functional assay

Binder	Average EC50, UT-7-luciferase assay [nM]
B2	4.03
B3	2.8
B4	0.11
B5	8.28
B6	0.322
B7	0.607
B8	0.381
B1	0.0154
B9	5.87
B10	0.613
B11	0.0075
B12	2.16
B13	0.055

biological target: cynomolgus monkey EpoR (cynoEpoR) (cynomolgus monkey); test: SPR, Biacore T100; scFv-Fc captured on CM5 chip, EpoR as analyte; fit to steady-state model (off-rate too rapid); clone #34, cynomolgus EpoR, steady-state fit

Binder	Kd [nM]
B4	5810

biological target: T2, soluble human erythropoietin receptor protein (huEpoR) (human); test: SPR, Biacore T100; scFv-Fc captured by anti-human IgG Fc on CM5 chip, EpoR as analyte

Binder	Kd [nM]	koff [s⁻¹]	kon [M⁻¹ s⁻¹]
B2	1040	0.0568	55000
B3	1950	0.119	61000
B4	378	0.203	536000
B5	4030	0.0187	4600
B7	163	0.00296	18000
B8	108	0.246	2.28e+06
B1	847	0.558	659000
B9	212	0.0335	158000
B11	45.4	0.0373	822000
B14	2190	0.142	65000

biological target: cynomolgus monkey EpoR (cynoEpoR) (cynomolgus monkey); test: as above

Binder	Kd [nM]	koff [s⁻¹]	kon [M⁻¹ s⁻¹]
B2	920	0.0597	65000
B3	3130	0.115	37000
B5	18600	0.0508	2700
B7	539	0.0221	41000
B8	1210	0.361	299000
B9	121	0.0258	213000
B11	890	0.0965	108000
B14	4360	0.283	65000
